Experiment: yeast display, Sf9 membrane polyspecificity reagent, FACS + sequencing; frameworks hold sequencing errors
Summary of the method: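 Synthetic nanobody libraries on Saccharomyces cerevisiae BJ5465 were galactose-induced for 36–48 hours, stained 1 hour at 4 °C with 10% biotinylated, detergent-solubilized Sf9 membrane reagent and enriched on streptavidin microbeads. FACS then separated cells into low and high (top ~1%) gates by anti-HA (expression) and streptavidin (reagent binding) fluorescence. Genes were colony-PCR amplified, MiSeq 2 × 250 sequenced and CDR-length filtered. A clone's polyreactivity label is that of its gate of origin.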
For “QVQLVESGGGLVQAGGSLRLSFAASGRIFSDNAMGWYRQAPGKERELVATINYSGGSTYYADSVKGRFTISRDNAKNTFYLQMNSLKPEDTAVYYCATRIPHRIIYYDYDYWGQGTQVTVSS”, the “polyreactivity (PSR sort gate)” value was “low polyreactivity”. In the case of “QVQLVESGGGLVQAGGSLRLSFAASGRTFGEYTMGWYRQATGKERELVAAISSAGRTNYADSVKGRFTISRDNAKNTVYLQMNSLKPEDTAVYYCAADWTDDVPGYDYWGQGTQVTVSS”, the “polyreactivity (PSR sort gate)” value is reported as “low polyreactivity”. In the case of “QVQLVESGGGLVQAGGSLRLSFAASGRTFGKNAMGWYRQAPGKEREFVAAITSRGGSTYYADSVKGRFTISRDNAKNTVYLQMNSLKPEDTAVYYCNREYKRPSQRTEHYYWGQGTQVTVSS”, the “polyreactivity (PSR sort gate)” value is reported as “low polyreactivity”. With “QVQLVESGGGLVQAGGSLRLSFAASGRTFIGYAMGWSRQAPGKERELVAGISWSGGSTYYADSVKGRFTISRDNAKNTVYLQMNSLKPEDTAVYFCAARGRWSTEYRYWGQGTQVTVSS” the “polyreactivity (PSR sort gate)” value was “low polyreactivity”. For “QVQLVESGGGLVQAGGSLRLSFAASGSIFGPYVMGWYRQAPGKERELVAAISKSGGSTYYADSVKGRFTISRDNAKNTVYLQMNSLKPEDTAVYYCATDYLGGGKRYYYWGQGTQVTVSS”, the “polyreactivity (PSR sort gate)” value was “high polyreactivity”. With “QVQLVESGGGLVQAGGSLRLSFAASGSIFSTYAMVWYRQAPGKERELVAAISTRGGRTYYADSLKGRFTLSRDNAKNTVYLQMNSLKPEDTAVYYCAADRYKTIGQWYYYWGQGTQVTVSS” the “polyreactivity (PSR sort gate)” value was “high polyreactivity”. In the case of “QVQLVESGGGLVQAGGSLRLSFAASGSIFSYYPMGWYSQAPGKERELVAAISTSGGRTYYADSVKGRFTISRDNEKNTVYLQLYSLKPEDTPVYYCAAPVRWKNYDYWGQGTQVTVSS”, the “polyreactivity (PSR sort gate)” value is reported as “high polyreactivity”. In the case of “QVQLVESGGGLVQAGGSLRLSFAASGSISLYYAMGWYRKAPGKETELVAAISTRGGSTYYADSVKGRFTISRDNAKNTVYLQMNSLKPEDTAVYYCAARTRLTADPRYGISSKMYYWGQGTQVTVSS”, the “polyreactivity (PSR sort gate)” value is reported as “high polyreactivity”. In the case of “QVQLVESGGGLVQAGGSLRLSFAASGSTFNIYTMGWYRQAPGKEWELVARITFSGGSTYYADSVKGRFTISRDYAKNTVYLQMNSLKPEDTAVYYCAVRVYRVDHFCYDYWGQGTQVTVSS”, the “polyreactivity (PSR sort gate)” value is reported as “high polyreactivity”. In the case of “QVQLVESGGGLVQAGGSLRLSFAASGSTFPSYAMGWYRQAPGKERELVAAITKGGSTTYADSVKGRFTISRDNAKNTVYLQMNSLKPEDTAVYYCAARYYYYYYYIRRDYWGQGTQVTVSS”, the “polyreactivity (PSR sort gate)” value is reported as “low polyreactivity”. In the case of “QVQLVESGGGLVQAGGSLRLSGAASGGTFSTNAMGWYRQAPGKERELVAAISLSGGRTYADSEKGRFTISRDNAKNTVYLKMNSVKPEDTAVYYCNADSAGITRARSELDYWGQGTQVTVSS”, the “polyreactivity (PSR sort gate)” value is reported as “low polyreactivity”. With “QVQLVESGGGLVQAGGSLRLSGAASGRIFVRNAMGWYRQAPGKERELVADITNGGSTNYADSVKGRFTISRDNAKNTVYLQMNSLKPEDTAVYYCAADTLGVYDGDYWGQGTQVTVSS” the “polyreactivity (PSR sort gate)” value was “low polyreactivity”. With “QVQLVESGGGLVQAGGSLRLSGAASGRIFYYNALGWYRPAPGKEREFVAAITWSGTSTNYADSLKGRFTISRDNAKNTVYLQMNSLKPEDTAVYYCAAQLRNSSRTYYRSGYWGQGTQVTVSS” the “polyreactivity (PSR sort gate)” value was “high polyreactivity”. With “QVQLVESGGGLVQAGGSLRLSGAASGSIFDIYAMGWYRPAPGKERELVADITISGGSTYYADSVKVRFTISRDNAKNTVYLQMNSLIPEDTAVYYCAADVTVVLGYKYDYWGQGTQVTVSS” the “polyreactivity (PSR sort gate)” value was “low polyreactivity”. For “QVQLVESGGGLVQAGGSLRLSGAASGSTFDIYAMGWYRQPPGKESELVAAITVSGGSTYYADSVKGSFTISRDNAKNTVYLQMNSLKPEDTAVYYCNADWSGWQGWYNYWGQGTQVTVSS”, the “polyreactivity (PSR sort gate)” value was “low polyreactivity”. In the case of “QVQLVESGGGLVQAGGSLRLSGAASGSTFESYAMGWYRQAPGKERELVAAISWRVGSTYYADSVKGRFTISRDNAKNTVYLQMNSLKPEDTAVYDCASKGRYAHYGGYDYWGQGTQVTVSS”, the “polyreactivity (PSR sort gate)” value is reported as “low polyreactivity”. With “QVQLVESGGGLVQAGGSLRLSGAASGSTFYSYAMGWYRQAPGKERELVAAISGSGASTYYADSVKGSFTISRDNAKNTVYLLMNSLKPEETAVYYCAADKPGIFSRFDYWGQGTQVTVSS” the “polyreactivity (PSR sort gate)” value was “low polyreactivity”. In the case of “QVQLVESGGGLVQAGGSLRLSGAASGTLYINLMGWYRQATGKERDLVAAISSNGARTYYADSVKGRFTISRDNAKNTVYLQMNSLKPDDTAVYYSNRVASVRARDYDYWGQGTQVTVSS”, the “polyreactivity (PSR sort gate)” value is reported as “high polyreactivity”. In the case of “QVQLVESGGGLVQAGGSLRLSGADSGLTFRRNAMGWYRQAPGNERELVAAIRTGGSTYYADSVKGRFTISRDNAKNTVYLQMNSLKPEDTAVYYCAARSLIGSRLVPMNFWGQGTQVTVSS”, the “polyreactivity (PSR sort gate)” value is reported as “high polyreactivity”. For “QVQLVESGGGLVQAGGSLRLSGSASGIIFIYYTIGWYRQAPGTESELVAVITTSGDGTYYADSVKGRFTISRDNAKNTVYLQMNSLKPEDTAVYYCAASYSTWVSTRNDYWGQGTQVTVSS”, the “polyreactivity (PSR sort gate)” value was “low polyreactivity”. In the case of “QVQLVESGGGLVQAGGSLRLSRAASGFIFRVYAMGWYRQAPGKERELVAAITGNGVSTYYADSVKGRFTISRDNAKNTVYLQMNSLKPEDTAVYYCATYGRRWYSSRRLDYWGQGTQVTVSS”, the “polyreactivity (PSR sort gate)” value is reported as “low polyreactivity”. For “QVQLVESGGGLVQAGGSLRLSRAASGITFRFYAMGWYRQAPGKERQVVARISSSGSRTYYADSVKVRFTISRDNAKNTVYLQMNSLKPEDTAVYYCNAVRRRYQSLLQGDYWGQGTQVTVSS”, the “polyreactivity (PSR sort gate)” value was “high polyreactivity”. In the case of “QVQLVESGGGLVQAGGSLRLSRAASGSIFDDYAMGWYRQAPGKERELVAAITSGGSTYYADSVKGRFTMSRDNAKNTVYLQRNSLKPEDTAVYYRATRYHWSSSFAPVGAYGYWGQGTQVTVSP”, the “polyreactivity (PSR sort gate)” value is reported as “low polyreactivity”. With “QVQLVESGGGLVQAGGSLRLSRAASGSIFVSNAMGWYRQAPGKERELVAAIRGVDSTYYADSVKGRFTISRDNAKTTVYLQMNSLKPEDTAVYYCATRGPGYPRYYDWGQGTQVTVSS” the “polyreactivity (PSR sort gate)” value was “high polyreactivity”. With “QVQLVESGGGLVQAGGSLRLSRAASGSTFVENAMGWYRQAPGKERELVAAISSSGDSTFYADSVKGRFTISRDNAKNTVYLQMNSLKPEDTAVYYCAADRRINYDGLDMDYWGQGTQVTVSS” the “polyreactivity (PSR sort gate)” value was “low polyreactivity”. In the case of “QVQLVESGGGLVQAGGSLRLSRDASGIIIYDYDIGWYRKAPGKERELVAAITSSGGSTYYADSVKGRFTLSRDNAKNTVYLQMNSLIPEDTAVYYCAAATRGSGRRYDYWGQGTQVTVSS”, the “polyreactivity (PSR sort gate)” value is reported as “high polyreactivity”. For “QVQLVESGGGLVQAGGSLRLSSAASGFIFFRYARGWYRQEPGKEREFVAAISWSGGRTYYADSVKGRFTISRDNAKNTVYLQMNSLKPEDTAVYYCAAYPSYWGYGYPGHDYWGQGTQVTVSS”, the “polyreactivity (PSR sort gate)” value was “high polyreactivity”. In the case of “QVQLVESGGGLVQAGGSLRLSSAASGFIFGGYSMGWYRQAPGKERELVAAISRSGGSTYYADSVKGRFTISRDNPKNTVYLQMNSLKPEDTAVYYCNAVPRRQGFNYWGHGTQVTVSS”, the “polyreactivity (PSR sort gate)” value is reported as “high polyreactivity”. With “QVQLVESGGGLVQAGGSLRLSSAASGFIFQKYVMGWSRQAPGKETEMVAVISRSGDSTRYADSVQGRFTISRDNAKNTVYLQMNSLKPEDTAVYYCAAASAKLTGTGYYYWGQGTQVTVSS” the “polyreactivity (PSR sort gate)” value was “high polyreactivity”. In the case of “QVQLVESGGGLVQAGGSLRLSSAASGFIFYDYAMGWYRQAPGKERALVAAIRSSDGGTYYADSVKGRFTISRDNAKNTVYLQMNSLKPEDTAVYYCAARPSYYDYDYWGQGTQVTVSS”, the “polyreactivity (PSR sort gate)” value is reported as “low polyreactivity”. For “QVQLVESGGGLVQAGGSLRLSSAASGFTFEFYAMGWYRQAPGKERELVAAITGSGGSTYYADSVKGRFTISRDNAKNTVYLQMNCLKPEDTAVYYWNAVTRRSAQVGHDYWGQVTQVTVSS”, the “polyreactivity (PSR sort gate)” value was “high polyreactivity”. In the case of “QVQLVESGGGLVQAGGSLRLSSAASGFTFIRSTMGWYRQAPGKEREFVAAITWSGDSTYYADSVKGRFTISRDNAKNTVYLQMNSLKPEDTAVYYCAAESDPYSPEYDYWGQGTQVTVSS”, the “polyreactivity (PSR sort gate)” value is reported as “low polyreactivity”.
